Source: patent US20240115667A1 (priority 2020, published 2024)
“Also recorded” adds a separate entry of the source.

B1: lactoferrin: lactoferrin from human milk; iron-binding ~80 kDa glycosylated protein (protein, UniProt P02788 20-710, looked up)
Lactotransferrin: GRRRSVQWCAVSQPEATKCFQWQRNMRKVRGPPVSCIKRDSPIQCIQAIAENRADAVTLDGGFIYEAGLAPYKLRPVAAEVYGTERQPRTHYYAVAVVKKGGSFQLNELQGLKSCHTGLRRTAGWNVPIGTLRPFLNWTGPPEPIEAAVARFFSASCVPGADKGQFPNLCRLCAGTGENKCAFSSQEPYFSYSGAFKCLRDGAGDVAFIRESTVFEDLSDEAERDEYELLCPDNTRKPVDKFKDCHLARVPSHAVVARSVNGKEDAIWNLLRQAQEKFGKDKSPKFQLFGSPSGQKDLLFKDSAIGFSRVPPRIDSGLYLGSGYFTAIQNLRKSEEEVAARRARVVWCAVGEQELRKCNQWSGLSEGSVTCSSASTTEDCIALVLKGEADAMSLDGGYVYTAGKCGLVPVLAENYKSQQSSDPDPNCVDRPVEGYLAVAVVRRSDTSLTWNSVKGKKSCHTAVDRTAGWNIPMGLLFNQTGSCKFDEYFSQSCAPGSDPRSNLCALCIGDEQGENKCVPNSNERYYGYTGAFRCLAENAGDVAFVKDVTVLQNTDGNNNEAWAKDLKLADFALLCLDGKRKPVTEARSCHLAMAPNHAVVSRMDKVERLKQVLLHQQAKFGRNGSDCPDKFCLFQSETKNLLFNDNTECLARLHGKTTYEKYLGPQYVAGITNLKKCSTSPLLEACEFLRK
B2: Unsaturated iron lactoferrin: lactoferrin that has been depleted of iron; also termed reduced iron lactoferrin or apolactoferrin (protein, UniProt P02788 20-710, looked up)
Lactotransferrin: B1 Lactotransferrin
modifications: iron-depleted apolactoferrin

Key:
[1] = system: SARS-CoV-2; type: cell-based; details: 400 μg/ml lactoferrin, 48 h after infection
[2] = system: SARS-CoV-2

Row | Molecule | Decrease of N-protein RNA copies [1] [%] | Inhibition of SARS-CoV-2 infection in vitro [2] | Reduction of virus-induced cytotoxicity ([2]; MOI 0.3)
1 | B1 | 28.0 |  | 
2 | B2 |  | directly inhibited SARS-CoV-2 infection more effectively compared to hololactoferrin; also recorded: inhibited SARS-CoV-2 infection when administered alone | more effective than recombinant lactoferrin
